Experimental data reported in the supplement of paper PMC11136658.

Tested on: peptide library, one residue held at a place counted from the Y acceptor
Assay: relative phosphorylation of the sub-library (ratio to the mean residue at this position); higher = residue favoured
Procedure, shortened: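 In 384-well plates, purified recombinant kinases were incubated for 90 min with 50 μM ATP containing γ-32P-ATP and biotinylated Tyr-centred peptide libraries, each mixture fixing one residue at a single position between −5 and +5. After capture on streptavidin membranes and rinsing, peptides were quantified by phosphorimaging with ImageQuant. Per-position intensities were scaled to the sum of the 18 (Ser/Thr-free library: 16) randomized residues, then multiplied by that number.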

FLT4, construct: aa800-end, human, sequence (P35916 800-1363, looked up): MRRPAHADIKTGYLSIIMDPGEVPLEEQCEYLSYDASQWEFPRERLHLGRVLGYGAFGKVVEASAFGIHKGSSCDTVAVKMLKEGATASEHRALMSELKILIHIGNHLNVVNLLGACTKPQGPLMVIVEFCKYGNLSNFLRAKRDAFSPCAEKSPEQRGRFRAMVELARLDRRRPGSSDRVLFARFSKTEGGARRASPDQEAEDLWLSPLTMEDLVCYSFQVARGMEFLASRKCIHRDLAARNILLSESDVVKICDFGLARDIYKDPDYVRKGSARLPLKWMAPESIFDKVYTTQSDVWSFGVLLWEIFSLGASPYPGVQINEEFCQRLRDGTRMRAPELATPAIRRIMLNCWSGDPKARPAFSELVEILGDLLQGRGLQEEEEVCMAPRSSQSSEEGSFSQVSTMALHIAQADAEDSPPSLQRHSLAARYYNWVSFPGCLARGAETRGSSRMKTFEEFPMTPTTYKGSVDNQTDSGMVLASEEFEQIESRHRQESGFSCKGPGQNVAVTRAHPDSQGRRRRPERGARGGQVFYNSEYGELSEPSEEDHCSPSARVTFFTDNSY
KDR, construct: aa789-end, human, sequence (P35968 789-1356, looked up): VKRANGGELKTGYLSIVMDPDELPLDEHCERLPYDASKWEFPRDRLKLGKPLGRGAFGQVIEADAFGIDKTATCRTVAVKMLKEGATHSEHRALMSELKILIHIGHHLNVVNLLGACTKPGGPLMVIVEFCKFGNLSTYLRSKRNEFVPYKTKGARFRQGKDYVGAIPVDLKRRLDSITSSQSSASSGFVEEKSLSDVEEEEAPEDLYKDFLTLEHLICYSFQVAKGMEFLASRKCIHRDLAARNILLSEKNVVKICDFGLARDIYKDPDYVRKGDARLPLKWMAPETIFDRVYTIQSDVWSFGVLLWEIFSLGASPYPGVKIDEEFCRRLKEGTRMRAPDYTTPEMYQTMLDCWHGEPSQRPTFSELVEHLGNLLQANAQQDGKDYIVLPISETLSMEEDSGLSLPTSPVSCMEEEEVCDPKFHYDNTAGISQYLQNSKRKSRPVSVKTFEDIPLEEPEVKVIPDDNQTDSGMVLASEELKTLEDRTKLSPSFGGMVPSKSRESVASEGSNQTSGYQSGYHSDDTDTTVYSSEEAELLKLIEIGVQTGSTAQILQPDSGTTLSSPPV
ABL1, construct: aa27-end, human, sequence (P00519 27-1130, looked up): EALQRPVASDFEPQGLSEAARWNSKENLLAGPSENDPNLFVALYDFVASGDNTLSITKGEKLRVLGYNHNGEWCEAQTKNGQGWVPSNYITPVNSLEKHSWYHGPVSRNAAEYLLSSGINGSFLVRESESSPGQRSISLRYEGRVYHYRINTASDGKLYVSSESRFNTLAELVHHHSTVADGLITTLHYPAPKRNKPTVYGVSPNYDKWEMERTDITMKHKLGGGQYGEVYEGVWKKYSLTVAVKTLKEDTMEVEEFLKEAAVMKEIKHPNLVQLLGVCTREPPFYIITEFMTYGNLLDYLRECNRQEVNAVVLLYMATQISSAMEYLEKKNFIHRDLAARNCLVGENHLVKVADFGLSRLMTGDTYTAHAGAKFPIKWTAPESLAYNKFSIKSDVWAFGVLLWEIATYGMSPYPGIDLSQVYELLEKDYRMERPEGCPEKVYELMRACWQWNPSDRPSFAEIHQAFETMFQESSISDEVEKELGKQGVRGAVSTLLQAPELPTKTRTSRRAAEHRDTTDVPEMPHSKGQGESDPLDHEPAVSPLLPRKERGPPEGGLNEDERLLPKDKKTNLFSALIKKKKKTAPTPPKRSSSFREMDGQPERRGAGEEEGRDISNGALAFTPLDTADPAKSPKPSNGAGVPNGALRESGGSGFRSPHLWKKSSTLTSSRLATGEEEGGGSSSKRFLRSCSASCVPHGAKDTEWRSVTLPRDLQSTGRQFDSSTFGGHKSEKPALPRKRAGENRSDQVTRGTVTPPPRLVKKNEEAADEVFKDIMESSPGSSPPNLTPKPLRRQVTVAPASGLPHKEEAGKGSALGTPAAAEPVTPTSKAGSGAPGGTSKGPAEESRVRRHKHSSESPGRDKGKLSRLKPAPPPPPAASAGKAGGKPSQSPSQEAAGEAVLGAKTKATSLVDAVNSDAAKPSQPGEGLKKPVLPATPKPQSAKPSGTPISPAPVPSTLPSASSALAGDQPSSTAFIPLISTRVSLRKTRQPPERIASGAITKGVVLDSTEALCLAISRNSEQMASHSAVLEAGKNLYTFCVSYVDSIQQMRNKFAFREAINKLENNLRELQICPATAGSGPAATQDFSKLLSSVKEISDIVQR

ABL1, construct: aa27-end, human (from UniProt P00519)
relative phosphorylation
Settings	at +1	at +2	at +3	at +4	at +5	at -1	at -2	at -3	at -4	at -5
A fixed	3.14	1.24	0.892	0.948	1.12	0.702	1.12	1.02	1.24	1.16
D fixed	0.625	0.513	0.23	0.579	0.651	0.886	0.85	1.21	1.2	1.03
E fixed	0.874	0.93	0.159	0.615	0.611	1.2	1.24	1.91	1.52	0.963
F fixed	0.86	0.975	1.28	1.16	0.705	0.795	0.615	0.796	0.702	0.817
G fixed	1.36	0.628	1.36	1.34	1.27	0.502	1.27	1.16	1.36	1.24
H fixed	1.17	0.749	0.814	1.17	1.1	1.63	0.935	0.919	0.893	1.07
I fixed	0.406	1.05	1.14	0.772	0.681	3.33	0.883	0.491	0.797	0.806
K fixed	0.586	0.815	0.403	1.17	1.17	0.402	0.87	0.79	0.874	1.08
L fixed	0.815	0.961	1.49	0.918	0.987	1.54	1.01	0.885	0.985	0.936
M fixed	1.15	0.954	0.883	1.19	1.09	1.06	0.779	0.928	0.884	0.965
N fixed	0.45	1.01	0.619	0.897	0.922	0.549	0.96	1.18	0.903	1.09
P fixed	0.184	1.02	2.74	0.832	1.38	0.541	1.29	1.14	1.22	1.2
Q fixed	1.13	0.901	0.419	1.09	0.947	0.745	1.08	0.973	1.18	1.07
R fixed	0.969	1.22	0.633	1.36	1.36	0.406	0.825	0.813	0.953	1.19
S fixed	1.16	1.32	1.17	1.01	1.06	0.472	1.12	1.06	0.86	1.01
T fixed	0.843	1.37	1.28	0.939	1.19	0.908	1.19	1.05	0.796	0.97
V fixed	1.03	1.39	1.04	0.925	0.996	1.81	1.4	0.873	1.01	0.873
W fixed	1.26	0.958	1.44	1.08	0.743	0.516	0.567	0.799	0.622	0.509
pThr fixed	0.766	0.921	0.395	0.391	0.458	0.785	0.973	1.51	1.11	0.913
pTyr fixed	1.47	1.77	0.465	0.55	0.607	3.35	1.39	2.36	1.66	1.18

KDR, construct: aa789-end, human (from UniProt P35968)
relative phosphorylation
Settings	at +1	at +2	at +3	at +4	at +5	at -1	at -2	at -3	at -4	at -5
A fixed	0.852	0.685	0.543	0.829	0.944	0.816	0.954	0.915	1.04	1
D fixed	0.301	0.599	0.314	0.665	0.745	2.25	1.1	1.21	1.04	0.987
E fixed	0.416	0.621	0.246	0.608	0.696	1.46	1.2	1.29	1.26	0.973
F fixed	1.6	1.34	2.2	1.1	1.04	0.846	0.617	0.819	0.818	0.816
G fixed	0.612	0.417	0.465	1.01	1.13	0.631	1.36	1.17	1.33	1.21
H fixed	1.37	0.86	0.523	0.95	0.978	1.37	1.12	1.02	0.975	1.03
I fixed	1.22	0.919	2.05	0.733	0.86	1.05	0.546	0.573	0.741	0.756
K fixed	0.944	1.32	0.469	1.52	1.17	0.726	1.21	1.18	1.2	1.49
L fixed	1.06	1.39	2.56	0.906	0.907	0.886	0.723	0.745	0.788	0.771
M fixed	1.17	1.06	2.1	0.996	1.04	0.654	0.645	0.699	0.826	0.857
N fixed	0.634	1.12	0.465	0.862	1.05	1.36	1.32	1.23	0.886	1.08
P fixed	0.645	0.63	0.787	1.29	1.26	0.842	1.08	1.15	1.28	1.14
Q fixed	1.27	1.01	0.561	1.02	0.916	1.07	1.19	1.09	1.12	1.01
R fixed	1.14	1.77	0.7	1.6	1.39	0.841	1.55	1.29	1.36	1.44
S fixed	0.712	0.921	0.599	0.982	1.09	0.671	1.14	1.05	0.856	0.973
T fixed	0.939	0.924	0.675	0.989	1.18	0.86	0.938	1.06	0.743	0.947
V fixed	1.79	1.02	1.65	0.841	0.733	0.962	0.637	0.633	0.756	0.768
W fixed	1.31	1.39	1.09	1.09	0.872	0.689	0.658	0.883	0.991	0.761
pThr fixed	0.636	1.09	0.307	0.54	0.602	1.64	1.14	1.41	1.1	1.25
pTyr fixed	2.12	1.83	0.405	0.526	0.731	2.89	1.99	2.27	2.12	1.45

FLT4, construct: aa800-end, human (from UniProt P35916)
relative phosphorylation
Settings	at +1	at +2	at +3	at +4	at +5	at -1	at -2	at -3	at -4	at -5
A fixed	0.654	0.524	0.48	0.749	0.758	0.638	0.879	0.799	0.976	0.878
D fixed	0.367	0.647	0.424	0.913	1.12	2.84	1.25	1.3	1.05	1.04
E fixed	0.448	0.846	0.366	0.895	0.95	1.93	1.3	1.34	1.16	0.956
F fixed	2.19	1.57	3.08	1.07	1.31	1.09	0.748	1.04	1.14	1.12
G fixed	0.351	0.332	0.713	1.01	0.98	0.492	0.949	0.888	0.967	0.956
H fixed	1.08	1.05	0.595	1.33	1.12	1.24	1.16	1.16	1.08	1.27
I fixed	1.69	1.02	1.82	0.723	0.927	1.05	0.825	0.743	0.798	0.898
K fixed	0.643	0.864	0.396	1.16	1.01	0.439	0.921	0.964	0.992	1.08
L fixed	1.06	1.36	2.1	0.856	1.06	0.746	0.887	0.845	0.928	0.853
M fixed	1.02	1.07	1.98	0.98	0.991	0.655	0.962	0.853	0.837	0.953
N fixed	0.534	0.899	0.389	0.868	1.1	1.6	1.2	1.24	0.896	1.08
P fixed	0.571	0.471	0.588	1.17	1.04	0.583	0.945	0.8	0.915	0.822
Q fixed	1.25	0.896	0.59	1.09	0.967	1.15	1.16	1.11	1.08	1.07
R fixed	0.734	1.3	0.554	1.37	1.01	0.507	1.17	1.09	1.14	1.24
S fixed	0.599	0.684	0.506	0.92	0.829	0.657	1.08	1.09	0.843	0.921
T fixed	0.9	0.895	0.72	0.848	0.771	0.792	0.899	1.01	0.74	0.848
V fixed	2.12	0.975	1.4	0.751	0.774	0.892	0.766	0.712	0.844	0.777
W fixed	1.78	2.6	1.3	1.3	1.28	0.706	0.895	1.03	1.61	1.23
pThr fixed	0.737	1.37	0.521	0.8	1.08	1.47	0.969	1.13	1.03	0.981
pTyr fixed	2.51	2.96	0.651	0.9	0.834	3.16	1.24	1.38	1.29	1.06
